Where “and” joins values, the source holds several entries; their conditions need not be identical. Identical values can stand only once.
Key:
ECF37_2513 = molecular target: T1, ECF37_2513
T1 chain: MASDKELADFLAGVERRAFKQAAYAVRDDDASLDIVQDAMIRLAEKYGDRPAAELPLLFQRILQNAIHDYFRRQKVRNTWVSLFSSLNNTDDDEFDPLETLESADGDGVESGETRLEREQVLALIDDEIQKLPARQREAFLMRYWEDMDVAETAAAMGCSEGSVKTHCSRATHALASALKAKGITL

ECF17_1691 = molecular target: T2, ECF17_1691
T2 chain: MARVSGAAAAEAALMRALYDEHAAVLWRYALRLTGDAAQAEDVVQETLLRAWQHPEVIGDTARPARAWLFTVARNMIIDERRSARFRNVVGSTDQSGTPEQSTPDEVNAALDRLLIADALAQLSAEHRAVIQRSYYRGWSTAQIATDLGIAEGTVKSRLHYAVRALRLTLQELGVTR

ECF15_436 = molecular target: T3, ECF15_436
T3 chain: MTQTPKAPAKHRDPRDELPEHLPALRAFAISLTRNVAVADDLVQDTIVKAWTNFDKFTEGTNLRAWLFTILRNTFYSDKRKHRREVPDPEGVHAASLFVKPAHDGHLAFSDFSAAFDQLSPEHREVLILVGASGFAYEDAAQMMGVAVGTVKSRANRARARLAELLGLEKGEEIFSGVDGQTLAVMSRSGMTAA

ECF34_1384 = molecular target: T4, ECF34_1384
T4 chain: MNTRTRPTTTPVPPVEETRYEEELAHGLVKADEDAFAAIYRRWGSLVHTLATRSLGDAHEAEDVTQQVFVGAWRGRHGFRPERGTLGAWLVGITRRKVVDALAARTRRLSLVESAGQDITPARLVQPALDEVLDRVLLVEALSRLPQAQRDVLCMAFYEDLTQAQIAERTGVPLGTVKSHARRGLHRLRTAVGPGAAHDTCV

ECF02_915 = molecular target: T5, ECF02_915
T5 chain: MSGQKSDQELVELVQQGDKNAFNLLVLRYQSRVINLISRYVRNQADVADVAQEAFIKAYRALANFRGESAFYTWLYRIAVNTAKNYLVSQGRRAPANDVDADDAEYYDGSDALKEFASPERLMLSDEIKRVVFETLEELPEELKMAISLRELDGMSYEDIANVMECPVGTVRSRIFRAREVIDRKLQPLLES

ECF35_3582 = molecular target: T6, ECF35_3582
T6 chain: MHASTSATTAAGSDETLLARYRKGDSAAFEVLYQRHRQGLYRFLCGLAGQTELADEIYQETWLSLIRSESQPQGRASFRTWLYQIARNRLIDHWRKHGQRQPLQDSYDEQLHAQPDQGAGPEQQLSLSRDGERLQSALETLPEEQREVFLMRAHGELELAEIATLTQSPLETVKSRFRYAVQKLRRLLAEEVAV

ECF30_35 = molecular target: T7, ECF30_35
T7 chain: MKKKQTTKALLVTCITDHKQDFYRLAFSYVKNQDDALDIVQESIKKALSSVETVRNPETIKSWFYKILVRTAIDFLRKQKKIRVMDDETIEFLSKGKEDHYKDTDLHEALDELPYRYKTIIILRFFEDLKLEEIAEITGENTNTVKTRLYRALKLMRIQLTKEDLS

ECF16_3622 = molecular target: T8, ECF16_3622
T8 chain: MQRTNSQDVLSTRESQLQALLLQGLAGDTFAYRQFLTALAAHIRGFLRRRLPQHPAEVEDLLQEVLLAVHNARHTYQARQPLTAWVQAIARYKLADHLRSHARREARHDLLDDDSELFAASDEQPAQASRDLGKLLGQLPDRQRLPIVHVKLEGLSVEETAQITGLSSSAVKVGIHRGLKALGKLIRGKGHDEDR

ECF25_1645 = molecular target: T9, ECF25_1645
T9 chain: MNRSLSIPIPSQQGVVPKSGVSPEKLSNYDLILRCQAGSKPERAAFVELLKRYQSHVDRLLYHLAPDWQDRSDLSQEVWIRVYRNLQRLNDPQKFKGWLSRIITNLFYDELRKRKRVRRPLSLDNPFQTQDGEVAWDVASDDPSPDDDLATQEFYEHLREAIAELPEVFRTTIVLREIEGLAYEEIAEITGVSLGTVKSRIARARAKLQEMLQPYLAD

ECF25_1643 = molecular target: T10, ECF25_1643
T10 chain: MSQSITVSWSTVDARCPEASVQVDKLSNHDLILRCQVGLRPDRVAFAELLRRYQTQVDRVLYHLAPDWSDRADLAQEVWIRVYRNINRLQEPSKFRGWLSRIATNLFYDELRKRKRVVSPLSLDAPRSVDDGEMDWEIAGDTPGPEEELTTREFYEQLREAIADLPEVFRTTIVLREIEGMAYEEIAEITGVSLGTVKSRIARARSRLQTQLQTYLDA

ECF28_1040 = molecular target: T11, ECF28_1040
T11 chain: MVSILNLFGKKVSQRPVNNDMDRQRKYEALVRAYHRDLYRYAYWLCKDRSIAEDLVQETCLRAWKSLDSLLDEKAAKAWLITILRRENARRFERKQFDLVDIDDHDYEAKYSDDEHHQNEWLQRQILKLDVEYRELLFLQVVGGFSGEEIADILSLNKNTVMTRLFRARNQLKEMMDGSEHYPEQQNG

ECF01_3473 = molecular target: T12, ECF01_3473
T12 chain: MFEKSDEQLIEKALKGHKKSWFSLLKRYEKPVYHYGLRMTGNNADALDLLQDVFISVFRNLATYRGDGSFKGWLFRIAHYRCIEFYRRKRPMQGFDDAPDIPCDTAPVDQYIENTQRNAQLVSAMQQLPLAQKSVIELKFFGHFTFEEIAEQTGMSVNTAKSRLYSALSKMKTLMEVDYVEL

ECF11_987 = molecular target: T13, ECF11_987
T13 chain: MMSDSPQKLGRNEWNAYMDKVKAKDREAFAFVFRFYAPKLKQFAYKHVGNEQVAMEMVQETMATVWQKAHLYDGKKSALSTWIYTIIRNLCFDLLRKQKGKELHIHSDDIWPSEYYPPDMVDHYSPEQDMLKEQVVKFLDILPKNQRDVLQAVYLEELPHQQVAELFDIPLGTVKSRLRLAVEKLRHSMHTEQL

ECF03_1244 = molecular target: T14, ECF03_1244
T14 chain: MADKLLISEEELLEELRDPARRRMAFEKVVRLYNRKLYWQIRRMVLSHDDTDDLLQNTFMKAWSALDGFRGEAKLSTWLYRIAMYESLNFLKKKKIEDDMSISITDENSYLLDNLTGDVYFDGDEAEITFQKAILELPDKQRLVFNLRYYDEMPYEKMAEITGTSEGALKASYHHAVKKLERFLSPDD

B1: AS38_1322 (protein)
chain: MSDGNDARPDARDGHDPGSDARDGHDPGSHARDGHDPGAGPFDGHGPGSDAGDGDDAGPDARDGHGAPAGPAGREQRKHPHDTHDMHDTHDTHAGKGTVNHGPAAQGPDAPGADGPATDEAALRAMMQRAVREMEPSDGTLEHLRRAVPARRARKRQALVGAAAAALFLGTAVPALVHVSNATGAGADPSVAGNASQAQGGASQGKDPAGGQSGVAGTGDTPEDRDKADPKETPGGKEPGAATGAPPSGVPSASSPADVPACAPGSLGPAVASSAEPDSTGVVYGSFRVTNVSSDGCTVTGPGTVVTASLGAAEATRIGTARHAAGDAAAGLPDPSLETASLALAPGAAYEVQFAWVPSETCPTTGGTTGGGSGGPSPDPSPTADTTAAGGTSAGGGEAGPTTQLITEDGPAEGSVSVTYTPEGGSGSATATVSNACAGTVYWTGLLADSGSGA
In the case of B1, the fold repression (ECF37_2513) is reported as 6.38, the fold repression (ECF17_1691) is reported as 2.81 and the fold repression (ECF15_436) is reported as 5.64. For the same binder, the fold repression (ECF34_1384) was 6.19, the fold repression (ECF27_1331) was 5.61 and the fold repression (ECF02_915) was 3.62. It also gave a fold repression (ECF35_3582) of 2.8, a fold repression (ECF30_35) of 3.08 and a fold repression (ECF16_3622) of 4.56. For the same binder, the fold repression (ECF25_1645) was 3.94, the fold repression (ECF25_1643) was 4.12 and 4.01 and the fold repression (ECF28_1040) was 2.92. The fold repression (ECF01_3473) was 4.19, the fold repression (ECF11_987) was 10.4 and the fold repression (ECF03_1244) was 4.75.

From article PMC3817407
